{"source": "paper doi:10.1101/2025.07.07.663466", "binders": {"B1": {"name": "recombinant human mitochondrial Hsp60, P10809 27-573 (natural protein)", "chain": "AKDVKFGADARALMLQGVDLLADAVAVTMGPKGRTVIIEQSWGSPKVTKDGVTVAKSIDLKDKYKNIGAKLVQDVANNTNEEAGDGTTTATVLARSIAKEGFEKISKGANPVEIRRGVMLAVDAVIAELKKQSKPVTTPEEIAQVATISANGDKEIGNIISDAMKKVGRKGVITVKDGKTLNDELEIIEGMKFDRGYISPYFINTSKGQKCEFQDAYVLLSEKKISSIQSIVPALEIANAHRKPLVIIAEDVDGEALSTLVLNRLKVGLQVVAVKAPGFGDNRKNQLKDMAIATGGAVFGEEGLTLNLEDVQPHDLGKVGEVIVTKDDAMLLKGKGDKAQIEKRIQEIIEQLDVTTSEYEKEKLNERLAKLSDGVAVLKVGGTSDVEVNEKKDRVTDALNATRAAVEEGIVLGGGCALLRCIPALDSLTPANEDQKIGIEIIKRTLKIPAMTIAKNAGVEGSLIVEKIMQSSSEVGYDAMAGDFVNMVEKGIIDPTKVVRTALLDAAGVASLLTTAEVVVTEIPKEEKDPGMGAMGGMGGGMGGGMF"}}, "molecular_target": "recombinant human mitochondrial Hsp60 (human), P10809", "assay": "native gel or EMSA + SEC", "details": "remark: other sources report otherwise", "data": [{"binder": "B1", "values": [{"measurement": "stoichiometry N", "value": 7}]}]}
